# Reference: the supplement of paper PMC9732359
# ± gives the uncertainty stated by the source.
# Test: protein stability index of a GFP-peptide fusion (yeast GPS) (PSI 1-4); higher = more stable; sorted into four equal gates, so the index is relative within each strain
# Conditions: san1∆
# Summary of the method: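 Plasmids isolated from each sorting gate were PCR-amplified and Illumina-sequenced, and barcodes assigned the reads to strains. The gates, four of equal size, were set by GFP/Cherry fluorescence ratio on mid-log cultures in leucine-free medium. These cultures were yeast carrying a pooled library of tiled 17-residue yeast protein peptides fused downstream of GFP on a plasmid that also expresses Cherry. The protein stability index is the sum of every gate's read frequency times its gate number.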
row,Sequence,protein stability index
1,YEKNFEATLESKLKEEE [ESC2],3.03 ± 0.071
2,YENIPIYATFLNESDCL [YDL116W/NUP84],2.15 ± 0.15
3,YFLVLSPYGNLQNDLIH [RPN5],2.64 ± 0.089
4,YFSVTTARRNVSGDAAA [SWI3],2.33 ± 0.08

# Same assay, conditions: ubr1∆
row,Sequence,protein stability index
1,VMFATNRPNTLDPALLR [RPT1],2.91 ± 0.073
2,VMLRLLLVVIFKKTLRS [SRB4],1.23 ± 0.088
3,VNCFHEDTELYQELIKN [YJL039C/NUP192],2.67 ± 0.056
4,VNEDPIFHPMIHYSWSF [YML103C/NUP188],2.49 ± 0.046
5,VNEIMYKCTAAMEKYLL [MTW1],2.29 ± 0.056
6,VNIHHLLNEYRPHQSRE [MED7],2.25 ± 0.1
7,VNIPSFMVRLDSEKHID [RPS9A],2.2 ± 0.052
8,VNKYGLRADKLYEKLKQ [ISW2],1.47 ± 0.15
9,VNNPQEETSHLLTVTPG [RPN10],2.86 ± 0.066
10,VNVEKFNVEYFAKEKLT [RPL6A],2.37 ± 0.036
11,VPATAAPGTEAGIVPVS [SWI1],3.15 ± 0.07
12,VPHYNRLDSYKVIEQPI [RPL25],2.21 ± 0.11
13,VPMKEENLEESFLSKHA [SSN2],3.35 ± 0.25
14,VPNSIGNIFSNIGTPSF [SNF5],2.79 ± 0.061
15,VPPMKLAYSKIVNGQTF [YMR129W/POM152],1.65 ± 0.053
16,VPPPPVRPSISFNESQR [RPO21],2.45 ± 0.034
17,VPQTEEARAEAINLMGV [RPO31],3.12 ± 0.052
18,VPRAALEERFDPKSPTK [YMR129W/POM152],3.1 ± 0.047
19,VPSTTNVNMTVNTMGTG [MED6],2.61 ± 0.13
20,VPVANQFINLAGYKKLG [QCR7],2.48 ± 0.11
21,VQESGNIDYQKGLLIWR [GRR1],2.75 ± 0.079
22,VQGLLQNAAANAEAKGL [RPL17A],2.4 ± 0.12
23,VQVRSVMDPITSKRKAE [DIS3],2.79 ± 0.12
24,VRELFEMARTKKACIIF [RPT1],1.66 ± 0.14
25,VRELGILCIFEGEKCHP [SEC65],2.45 ± 0.042

row,Sequence,protein stability index
1,VRILRLITTNSVEEVIL [SNF2],1.68 ± 0.033
2,VRLRSNVIKTGIRIISL [RPN3],2.44 ± 0.065
3,VRTHMRNMIIVPEMIGS [RPS15],1.54 ± 0.05
4,VRTNTLTKAAIVQIDAT [RPS8A],2.297 ± 0.019
5,VSEITKLKFFPSGEALI [RPN14],3.18 ± 0.059
6,VSFYFEDGTIESYNQND [SIN4],2.92 ± 0.084
7,VSKEGLYQLVDIRDSSC [YMR129W/POM152],2.84 ± 0.05
8,VSKKWAAAAVCEKWAAS [RPL14A],2.17 ± 0.077
9,VSLGTSIMAVTFKDGVI [PRE3],3.6 ± 0.074
10,VSMYQNSSTSSTSNTPS [YDL088C/ASM4],2.69 ± 0.046
11,VSNNEANTPSIPTNPVD [SWI3],3.08 ± 0.065
12,VSPAFRVQVGDIVTVGQ [RPS11A],2.42 ± 0.078
13,VSQQPLSRGYTCPGLSL [ECM29],2.93 ± 0.044
14,VSSSLYERRFGPYFVGP [PUP3],2.95 ± 0.095
15,VSTAKFSGKYLKYLTKK [RPL22A],3.26 ± 0.12
16,VTDKYTAKKTNRSAYDS [YDL088C/ASM4],2.79 ± 0.043
17,VTDNKTPEMNVTNNVEE [TAF14],3.2 ± 0.17
18,VTDSSLLKLLTRLVQLR [GRR1],1.84 ± 0.045
19,VTEMSNNANVLGGEIND [BRR2],3.15 ± 0.064
20,VTFIFGELKRGNESVKP [MED11],2.98 ± 0.15
21,VTKDLKLRREDEIIVYA [REC8],2.96 ± 0.044
22,VTKGGTVENPLRNWEEL [PRP28],2.89 ± 0.057
23,VTMGAKDKLREFIPHST [RPN6],3.04 ± 0.11
24,VTRIINSSEIQSAIRPA [RPL4A],2.26 ± 0.096
25,VTSKVRNAEFKVSKNST [YMR153W/NUP53],3.28 ± 0.29

row,Sequence,protein stability index
1,VTVDADIDDILKKGEQK [ISW2],2.72 ± 0.043
2,VTVEQLRSIYHQFHDIL [NSL1],1.81 ± 0.066
3,VTWRTFTGDFLRRVEER [FAS1],1.24 ± 0.15
4,VVERHLEDGDVVLFNRQ [RPO31],3.38 ± 0.083
5,VVFTRLVQRCWQWGNDR [CSN12],1.52 ± 0.058
6,VVGQLFQIDNDNIRYAT [SMC2],2.88 ± 0.078
7,VVMAMYNPKMIDDRDYV [RET1],3.45 ± 0.27
8,VVSTDLESIQKTKEAVA [RPL4A],2.82 ± 0.063
9,VYAQQSTVQTPITASMA [PGD1],1.86 ± 0.042
10,VYDIMALEDEERDEILT [BRR2],3.39 ± 0.096
11,VYSFDPVGSYEREQCRA [PRE7],3.29 ± 0.091
12,VYVTGGRNLGRIGTIVH [RPS4A],3.4 ± 0.13
13,WAEHLSDEVKRRFYKNW [RPL3],3.37 ± 0.17
14,WCQEAFPSSETTSLNPI [BRR2],3.23 ± 0.17
15,WEISNPDFLSKYSAITS [NUT1],1.59 ± 0.041
16,WFLDHNYIENMNEMCKK [RPN8],3.2 ± 0.083
17,WGEQKKAMSSRAGVSQV [RPB2],3.32 ± 0.05
18,WGIPLIKELRSKGYPIQ [FAS1],1.85 ± 0.071
19,WGMEPLEDYVPHQSPDA [RPB2],2.98 ± 0.076
20,WGYQMVWAPTQKCFKLT [POP1],2.66 ± 0.067
21,WHIEETGEWFSSYEEFL [ITC1],2.53 ± 0.063
22,WKFKSLIEILRLRALQL [RRI2],1.08 ± 0.075
23,WKIPQNDIPQTESPLKT [SSN2],2.38 ± 0.039
24,WLAAATATGIKVFSLDP [ASC1],2.43 ± 0.029
25,WLLHNGFSTGIGDTIAD [RPO21],3.06 ± 0.15

row,Sequence,protein stability index
1,WLYVYETPNQDATYDSA [RPN6],2.49 ± 0.055
2,WNLNATKPNVLNDPSLK [SIN4],3.26 ± 0.04
3,WNSLMYALQSVKLPRAF [RRP43],1.29 ± 0.051
4,WNWAKQSLLSLYFEIIH [FAS2],1.4 ± 0.072
5,WRSKRIEQLFPVRPVRV [RPC53],3.08 ± 0.069
6,WSFEEVEVKDASLVDYV [RPS5],1.17 ± 0.056
7,WSSLLNEGLVEYIDAEE [RPB2],2.97 ± 0.16
8,WVNMLLISSSGPIKTPV [FAS2],1.53 ± 0.047
9,WVTEVLGNDIPHDLIIG [BRR2],2.89 ± 0.046
10,YALQSVKLPRAFIDERA [RRP43],1.33 ± 0.075
11,YASKAVPHYNRLDSYKV [RPL25],1.47 ± 0.11
12,YDDEQNTSAQHVESDKI [IRR1],3.27 ± 0.057
13,YDEVKKHWGGGILGNKA [RPL8A],3.23 ± 0.061
14,YDLVDNKGAKAEDVALN [NAS6],3.07 ± 0.071
15,YDNIDIQRGRILPTDGS [RPB7],2.94 ± 0.24
16,YDSRGVGEMKLLKKKDD [YLR335W/NUP2],2.6 ± 0.17
17,YDSRPLEEDSKKVNGTS [PRP8],2.94 ± 0.11
18,YEAGASHGNPVVDFLKR [FAS1],3.25 ± 0.044
19,YEDEELSRAEYDSDSDS [LIN1],3.23 ± 0.055
20,YEKNFEATLESKLKEEE [ESC2],3.18 ± 0.13
21,YENIPIYATFLNESDCL [YDL116W/NUP84],2.62 ± 0.1
22,YFLVLSPYGNLQNDLIH [RPN5],2.67 ± 0.14
23,YFSVTTARRNVSGDAAA [SWI3],1.88 ± 0.047
